Measured values from patent US20220195068A1 (TENEOBIO, published 2022).
Changes are numbered by the printed parent chain.

What was measured:
[1] = molecular target: T1, human PSMA (Prostate Specific Membrane Antigen, Glutamate Carboxypeptidase II) on cells (human, UniProt Q04609 1-750); assay: cell-based or functional assay
[2] = molecular target: T1, human PSMA (Prostate Specific Membrane …); assay: flow cytometry cell binding, LNCAP cells
[3] = molecular target: T1, human PSMA (Prostate Specific Membrane …); assay: flow cytometry cell binding, MDA-PCa-2b cells
[4] = molecular target: T1, human PSMA (Prostate Specific Membrane …); assay: flow cytometry cell binding, 22Rv1 cells
[5] = molecular target: T1, human PSMA (Prostate Specific Membrane …); assay: flow cytometry cell binding, PC3-PSMA cells
[6] = molecular target: T1, human PSMA (Prostate Specific Membrane …); assay: flow cytometry on LNCaP cells
Method: Briefly, 50,000 target cells were stained with a dilution series of purified UniAbs™ for 30 minutes at 4° C. Following incubation, the cells were washed twice with flow cytometry buffer (1X PBS, 1% BSA, 0.1% NaN₃) and stained with goat F(ab')₂ anti-human IgG conjugated to R-phycoerythrin (PE) (Southern Biotech, cat. #2042-09) to detect cell-bound antibodies. After a 20-minute incubation at 4° C., the cells were washed twice with flow cytometry buffer and the mean fluorescence intensity (MFI) was measured by flow cytometry. The MFI of cells stained with secondary antibody alone were used for determination of background signal and binding of each antibody was converted to fold over background. Binding to cynomolgus PSMA positive cells was determined using the same protocol with the following modifications: the target cells were from Freestyle 293-F cells (ThermoFisher R79007) transiently transfected to express the extracellular domain of cynomolgus PSMA. In some experiments EC50 values were calculated using GraphPad Prism 7.

T1 sequence (Q04609 whole entry): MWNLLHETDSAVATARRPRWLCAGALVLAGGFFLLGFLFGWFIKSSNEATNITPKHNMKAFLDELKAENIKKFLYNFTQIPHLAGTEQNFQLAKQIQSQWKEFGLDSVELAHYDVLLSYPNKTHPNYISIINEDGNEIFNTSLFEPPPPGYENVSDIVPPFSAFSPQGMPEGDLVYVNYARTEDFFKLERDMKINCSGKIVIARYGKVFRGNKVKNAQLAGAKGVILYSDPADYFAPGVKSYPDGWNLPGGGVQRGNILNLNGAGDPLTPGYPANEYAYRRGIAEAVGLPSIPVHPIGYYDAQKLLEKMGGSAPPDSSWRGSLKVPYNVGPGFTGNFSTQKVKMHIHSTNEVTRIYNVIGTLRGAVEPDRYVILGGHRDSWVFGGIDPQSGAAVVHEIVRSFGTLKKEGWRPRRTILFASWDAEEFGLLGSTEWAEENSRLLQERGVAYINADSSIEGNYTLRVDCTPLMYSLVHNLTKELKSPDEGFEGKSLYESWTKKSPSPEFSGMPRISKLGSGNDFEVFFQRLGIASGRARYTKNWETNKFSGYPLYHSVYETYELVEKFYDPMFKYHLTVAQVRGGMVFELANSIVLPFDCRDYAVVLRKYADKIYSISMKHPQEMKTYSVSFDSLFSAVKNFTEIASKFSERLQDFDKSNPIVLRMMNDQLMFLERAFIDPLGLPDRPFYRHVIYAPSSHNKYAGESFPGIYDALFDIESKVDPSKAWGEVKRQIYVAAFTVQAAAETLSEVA

B1: 346181xCD3 monoparatopic PSMAxCD3 bispecific antibody (bispecific antibody, human IgG4 S228P, kappa, F234A L235A)
heavy 1: QLQLQESGPGLVKPSETLSLTCTVSGGSISSSNYFWGWIRQSPGKGLEWIGSIDYSGYTYYNPSLKSRVTISVDTSKNQFSLKLSSVTAADTAVYNCARHKAATADFDYRGQGTLVTVSSESKYGPPCPPCPAPEAAGGPSVFLFPPKPKDTLMISRTPEVTCVVVDVSQEDPEVQFNWYVDGVEVHNAKTKPREEQFNSTYRVVSVLTVLHQDWLNGKEYKCKVSNKGLPSSIEKTISKAKGQPREPQVYTLPPSQEEMTKNQVSLSCAVKGFYPSDIAVEWESNGQPENNYKTTPPVLDSDGSFFLVSRLTVDKSRWQEGNVFSCSVMHEALHNHYTQKSLSLSLGK
heavy 2: EVQLVESGGGLVQPGRSLRLSCAASGFTFDDYAMHWVRQAPGKGLEWVSGISWNSGSIGYADSVKGRFTISRDNAKNSLYLQMNSLRAEDTALYYCAKDSRGYGDYRLGGAYWGQGTLVTVSSASTKGPSVFPLAPCSRSTSESTAALGCLVKDYFPEPVTVSWNSGALTSGVHTFPAVLQSSGLYSLSSVVTVPSSSLGTKTYTCNVDHKPSNTKVDKRVESKYGPPCPPCPAPEAAGGPSVFLFPPKPKDTLMISRTPEVTCVVVDVSQEDPEVQFNWYVDGVEVHNAKTKPREEQFNSTYRVVSVLTVLHQDWLNGKEYKCKVSNKGLPSSIEKTISKAKGQPREPQVYTLPPSQEEMTKNQVSLWCLVKGFYPSDIAVEWESNGQPENNYKTTPPVLDSDGSFFLYSRLTVDKSRWQEGNVFSCSVMHEALHNHYTQKSLSLSLGK
light: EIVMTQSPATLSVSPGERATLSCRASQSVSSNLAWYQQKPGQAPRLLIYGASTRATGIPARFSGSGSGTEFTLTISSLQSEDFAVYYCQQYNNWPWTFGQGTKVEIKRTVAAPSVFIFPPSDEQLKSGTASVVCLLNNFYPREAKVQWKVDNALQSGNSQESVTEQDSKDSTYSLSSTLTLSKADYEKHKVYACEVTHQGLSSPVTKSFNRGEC
notes: three-chain antibody-like molecule; also called monoparatopic molecule
- IFNγ EC50, 22Rv1 cells [1]: 174 nM
- IFNγ EC50, LNCAP cells [1]: 63 nM
- IFNγ EC50, MDA-PCa-2b cells [1]: 116 nM
- IFNγ EC50, PC3-PSMA cells [1]: 10.1 nM
- IL-2 EC50, LNCAP cells [1]: 575 nM
- IL-2 EC50, MDA-PCa-2b cells [1]: 38.5 nM
- IL-2 EC50, PC3-PSMA cells [1]: 4.1 nM
- Kill EC50, 22Rv1 cells, resting T-cells [1]: 52.8 nM
- Kill EC50, LNCAP cells, resting T-cells [1]: 14.6 nM
- Kill EC50, MDA-PCa-2b cells, resting T-cells [1]: 23.6 nM
- Kill EC50, PC3-PSMA cells, resting T-cells [1]: 3.7 nM
- EC50 [2]: 17 nM
- EC50 [3]: 28 nM
- EC50 [4]: 58 nM
- EC50 [5]: 30 nM

B2: 350123xCD3 biparatopic PSMAxCD3 multi-specific antibody (bispecific antibody, human IgG4 S228P, kappa, F234A L235A)
heavy 1: QLQLQESGPGLVKPSETLSLTCTVSGGSISSSNYFWGWIRQSPGKGLEWIGSIDYSGYTYYNPSLKSRVTISVDTSKNQFSLKLSSVTAADTAVYNCARHKAATADFDYRGQGTLVTVSSGGGGSGGGGSQVQLVESGGGVVQPGRSLRLSCAASGFSFSRYGMHWVRQAPGKGLEGVAVIWYDGSNRYYADSVKGRFTISRDNSKNTLYLQMNSLRAEDTAVYYCAREPRIGYYYESSGYYSLDYRGQGTLVTVSSESKYGPPCPPCPAPEAAGGPSVFLFPPKPKDTLMISRTPEVTCVVVDVSQEDPEVQFNWYVDGVEVHNAKTKPREEQFNSTYRVVSVLTVLHQDWLNGKEYKCKVSNKGLPSSIEKTISKAKGQPREPQVYTLPPSQEEMTKNQVSLSCAVKGFYPSDIAVEWESNGQPENNYKTTPPVLDSDGSFFLVSRLTVDKSRWQEGNVFSCSVMHEALHNHYTQKSLSLSLGK
heavy 2: B1 heavy 2
light: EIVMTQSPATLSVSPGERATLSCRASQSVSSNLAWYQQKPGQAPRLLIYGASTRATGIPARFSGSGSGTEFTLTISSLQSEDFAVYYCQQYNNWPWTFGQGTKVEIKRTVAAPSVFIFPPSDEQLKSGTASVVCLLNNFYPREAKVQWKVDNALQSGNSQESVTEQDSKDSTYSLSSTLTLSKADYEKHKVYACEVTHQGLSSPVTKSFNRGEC
notes: also called biparatopic molecule
- IFNγ EC50, 22Rv1 cells [1]: 380 nM
- IFNγ EC50, LNCAP cells [1]: 3.29 nM
- IFNγ EC50, MDA-PCa-2b cells [1]: 0.9 nM
- IFNγ EC50, PC3-PSMA cells [1]: 1.01 nM
- IL-2 EC50, LNCAP cells [1]: 3.73 nM
- IL-2 EC50, MDA-PCa-2b cells [1]: 1.11 nM
- IL-2 EC50, PC3-PSMA cells [1]: 1.1 nM
- Kill EC50, 22Rv1 cells, resting T-cells [1]: 0.42 nM
- Kill EC50, LNCAP cells, resting T-cells [1]: 0.84 nM
- Kill EC50, MDA-PCa-2b cells, resting T-cells [1]: 0.41 nM
- Kill EC50, PC3-PSMA cells, resting T-cells [1]: 0.4 nM
- EC50 [2]: 2 nM
- EC50 [3]: 2 nM
- EC50 [4]: 3 nM
- EC50 [5]: 6 nM

B3: anti-PSMA heavy chain antibody clone ID 345505 (antibody, V domains shown)
VH: QVQLVESGGGVVQPGRSLRLSCAASGFTFISYGMHWVRQAPGKGLEGVAVIWYDGSNRYYADSVKGRFTISRDNSKNTLYLQMNSLRAEDTAVYYCAREPRIGYYYESSGYYSLDYRGQGTLVTVSS
notes: heavy chain-only antibody (UniAb), no light chain
- fold over the background MFI signal [6]: 59 fold over background

B4: anti-PSMA heavy chain antibody clone ID 345508 (antibody, V domains shown)
VH: B3 VH with T28S, I30S, L45P, G47W
notes: as for B3
- fold over the background MFI signal [6]: 55 fold over background

B5: anti-PSMA heavy chain antibody clone ID 345509 (antibody, V domains shown)
VH: B3 VH with V11L, R16G, T28S, I30S, R58K, L79M
notes: as for B3
- fold over the background MFI signal [6]: 37 fold over background

B6: anti-PSMA heavy chain antibody clone ID 345510 (antibody, V domains shown)
VH: B3 VH with T28S, I30S, G47W, R58K, L79M
notes: as for B3
- fold over the background MFI signal [6]: 13 fold over background

B7: anti-PSMA heavy chain antibody clone ID 325932 (antibody, V domains shown)
VH: B3 VH with T28S, I30S
notes: as for B3
- fold over the background MFI signal [6]: 64 fold over background
